# B1: VvGH3-9: GH3 protein, accession XP_002280738.1 (protein, listed as Vitis vinifera)
# chain: MLEKMEEFKAEKVIEEFEELTKDAGRVQRETLKKILEDNASAEYLQKQGLNGRTDPESYQACVPLVTHADLVPYIKRIADGDTSPVLTGKPIKTMSLSSGTTQGKQKYVPFNDELLETTLQIYRTSFAFRNREFPVRNGMALQFIYGSKQFKTEGGLFAGTATTNVFSSSQFKTTMKAIESPCCSPDEVIFGPDFRQSLYCHLLCGLIHHNEIQLVSSTFAHSIVYAFRTFEQVWEQLCADIQDGVLTKDVTVPSIRAVMSKLLKPNPELAEWIYKKCSGLSNWYGVIPALFPNVKYVYGIMTGSMEPYLKKLRHYAGDVPLLSADYGSSEGWIGANINPKLPPELATYAVLPNIGYFEFIPLRGSAEEDRQDKIQSSFESKPVGLTEVKIGEEYEIIVTNFAGLYRYRLGDVVKIAGFHNMTPELQFVCRRNLLLTINIDKNTEKDLQLAVEAAAEVLAPEKVEVIDFTSQVDKSTDPGHYVIFWEISGEVSVEVSSECCNCLDRSFVDAGYISSRKVNSIGPLELKLVRRGTFQKILDHYLGIGGVLSQYKTPRCVNPNNNMVLQILYSNVVKSHFSTAFG
# B2: SlGH3-8: GH3 protein, Solyc07g054580.2 (protein, listed as Solanum lycopersicum)
# chain: MTNINCKDKIETDIIGWFDEVADDSAVVQRRTLRRILEMNHGVEYLKKWIGDIKIEEIDENLLESTYASLVPLASHADIEPFTKRIADGDTTPLLTQQPITNLSLSSGTTDGRQKFVPFTHHSSQTTLQIFKLAAAYRSRIYPIRRGGRILEFIYSSKQCKTKGGIIVGTATTHYYASDEFKIKQQQTKSFTCSPQEVISCGDYKQSTYCHLLLGLYFSHEVEFVTSAFAYSIVEAFRSFEEMWKELCHDIREGSLSSIINIDKVRKSVSGITQPNPELASRIESICVELERADWFSIIPKLWPNAKYVYSIMTGSMMPYLTKLRHYAGELPLVSADYGSTESWIGVNLDPSNPPEKVTFAVVPTFSYFEFIPLYKHKSNYNYQNVNLNSTNDDYIEGNSMPLCQVKSGQQYEIVITTFTGLYRYRLGDVVEVDGFYKKTPKLNFICRRNLILAINIDKNTEKDLQLVVERGARILSKGTRRAELVDFTSHANVTKQPGHYVIYWEIKGEIDEKVLDECCRDMDASFVDHGYVVSRRTKSIGPLELCIVERGTFKKILESYIGNGAALSQFKTPRCTSNKELLNILNVCTIKRFYSTAYG
# B3: ZmACN26159: GH3 protein, accession ACN26159 (protein)
# chain: MTICSSEEIIDEFELLTRDARRVQQDTLRKILELNGDAEYLNRFNLGRRTDSKSFKSCIPLCVHSDIESYIQRIADGDDSPVLTGKPITSLSLSSGTTQGKPKFLPFNDELLESTFQIFRTSYAFRNREYPIVNGKALQFVYGSKQVFTQGGILAATATTNLYRSQRFKEAMKDVMTQCCSPDEVIFGPDFHQSLYCHLLCGLINSDEVQFVFSPFAHSLVHAFHSLEEVWEDLCADIRDGVLSKRVTAPSIRQAVSKILRPNPELASSIYIKCQSLSNWYGVIPTLWPNVKYIYGIMTGSMEPYLKKLRHYAGHLPLLSADYGASEGWVGSNINPTLPPEEVTYAVLPNIAYFEFIPLEKPKWEETEICSSVHYIESEPVGLTEVEVGKIYEVVITNFAGLYRYRLGDIVKIAGFHNATPELQFICRRSLVLSVNIDKNTEKDLQLAVEAAEKLLAAEKLEVVDFTSLVDRSSEPGHYVIFWELSSDDGASEDVLSGCASCMDLAFADAGYVGSRKTQTIGALELRVLRKGAFAQVMNHYLSLGGAVSQFKTPRFVSQSNSKVLQILSRNVTRSYFSTAYGL
# modifications: Zea mays
# B4: VvGH3-7: GH3 protein, accession XP_002272560 (protein, listed as Vitis vinifera)
# chain: MESAAGAESNGEHEIIGWFEDVSENTGYVQTQTLCRILELNSGVEYLKKWLGDINVQEMEASALESLYTSLVPLASHADLETYIQRIADGDTSPILTNQPITTLSLSSGTTEGRQKYVPFTRHSSQTTLQIFQLAAAYRSRVYPITPGRRILEFIYSSKQFKTKGGLIAGTATTHYFASEEFKIKQEKTKSFTCSPEEVISSGDYKQSTYCHLLLGLHFHDEVEFITSTFAYSIVQAFRTFEELWRNICSDIREGIVSSRISLPKVRKAVSDIISPNPGLASWIEASCKELEDKDWFGLIPKLWPNAKYVYSIMTGSMQPYLKKLRHYAGDLPLVSADYGSTESWIGANIDPSSPPENVTFAVIPTFSYFEFIPLYRQNQNCSSSIDDFIEDEPVPLSQVKIGQEYEIVLTTFTGLYRYRLGDVVEVAGFHKGTPKLNFICRRKLILTVNIDKNTEKDLQSVVEVGSQLLGKTKAELVDFTSHADLVKQPGHYIIYWEIKGEADDKVLSECCNEMDACFVDQGYIVSRKTHSIGPLELCIVERGTFKKILDHFIGKGAALSQFKTPRCTADEVLLRILNVCTIKRFHSTAYG
# B5: SlGH3-1: GH3 protein, SL2.40ch01: 78555183-78557768 (protein, listed as Solanum lycopersicum)
# chain: MLEKIEMKFDPEEVIEEFEALTKEAGKVQEETLKKILEENGSTVYLQQWGLNGRTDPEIFKSCVPLVTHKDLEPYIQRIADGDLSPVLTGKPITTISLSSGTTQGRPKFVPFNDELMESTMQIYKTSFAFRNREFPIENGKALQFIYSSKQFKTKGGLAAGTATTNVYRNAHFKKTMRAMQTPCCSPDEVIFGPDFHQSLYCHLLCGLIFRDEVQVVSSTFAHSIVHAFRTFEQVWEELVADIREGVISSRVTVPSMRSAIMKLLKPDPEQADSIYNKCSGLSNWYGLIPVLFPSARYIYGIMTGSMEPYLKKLRHYAGELPLLSADYGSSEGWIGANVNPKLPPELVTYAVLPNIGYFEFIPLRVNLDGLEPTPVGLAEVKLGEEYEIVVTNFAGLYRYRLGDVVKIKGFHNATPELQFICRSNLILSINIDKSTEKDLQLAVEAAARLLVDEKLEVVDFTSHANVATDPGHYVVFWELSGEASDETLQECCNCLDKSFVDAGYVGSRKVNVIGALELRVVKKGTFHKILDHFVGLGGAVSQFKTPRCVGQNNSRLLQILCYDVVKSYFSTAY
# Test: LC-MS assay of GH3 conjugation of dicamba with Asp or Glu
# Type: biochemical
# Details: LC-MS; dicamba with Asp
# Protocol: To detect and monitor the formation of acyl conjugates with 2,4-D or dicamba, a sensitive LC-MS method was developed using the respective amino acid conjugate standards. […] […] […] The supernatant was diluted 20× in water and then analyzed by LC-MS (AB Sciex 4000 QTrap coupled with Shimadzu Nexera UHPLC) using a Phenomenex Luna 3 μm Phenyl-Hexyl (00B-4256-Y0) column. The concentration of the conjugates was calculated based on the standards. Kinetic parameters were estimated by fitting initial velocity values to the Michaelis-Menten equation.
# The GH3 superfamily conjugase activity analysis of IAA, 2,4-D or dicamba with Asp or Glu was done using LC-MS to analyze the final conjugate products as described in Example 1. Protein sequences of GH3 homologs (Table 3) were obtained from public databases (NCBI, http://www.ncbi.nlm.nih.gov/) by Blast analysis of AtGH3.17 protein sequence (accession # Q9FZ87). Coding sequences were designed for optimal expression in E. coli based on the protein sequences and synthesized. Synthesized coding sequences along with N-term his-tag coding sequences were cloned into a pET24a-based E. coli expression vector. The E. coli expression vectors were transformed into OverExpress C41(DE3) cells (Lucigen) for protein expression. Recombinant E. coli strains were inoculated into 5 ml LB media supplemented with 40 mg/L kanamycin and cultured overnight at 37° C. The overnight culture (0.5 mL) was inoculated into 50 mL LB medium plus 40 mg/L kanamycin and grown at 30° C. until OD600 reached 0.6. The cultures were induced with 0.2 mM IPTG at 16° C., 230 rpm overnight. Cells were harvested by centrifugation at 7,000 rpm for 10 mins. The cell pellet from 50 mL of cell culture was frozen and thawed twice and then lysed in 800 μL lysis buffer A (150 mM NaCl, 50 mM Tris-HCl pH 8.0, 5 mM MgCl2, 10% glycerol) plus 20 mM imidazole, 1 mM DTT, 0.2 mg/ml lysozyme, 1/200 protease inhibitor cocktail (EMD set3, EDTA free) and 1/2000 endonuclease. Lysate was then centrifuged at 13,000 rpm for 30 min at 4° C. Supernatant was loaded onto 200 μL Ni-NTA columns pre-equilibrated with buffer A with 20 mM imidazole at 4° C. Each column was then washed with (1) 2×800 μL of buffer A with 10 mM imidazole, (2) 2×800 μL of buffer A with 20 mM imidazole and (3) 2×200 μL of buffer A with 50 mM imidazole. Protein was eluted with 200 μL of buffer A with 250 mM imidazole. The concentration was measured by Bradford assay. Purified protein was used in conjugation reaction assays as described in example 1.
row,Molecule,Detected auxin conjugates: Dicamba-Asp
1,B1,No
2,B2,No
3,B3,No
4,B4,No
5,B5,No

# Same assay, conditions: LC-MS; dicamba with Glu
row,Molecule,Detected auxin conjugates: Dicamba-Glu
1,B1,No
2,B2,No
3,B3,No
4,B4,No
5,B5,No

# Test: LC-MS assay of GH3 conjugation of 2,4-D with Asp or Glu
# Type: biochemical
# Details: LC-MS; 2,4-D with Asp
# Procedure, shortened: (§1)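 Rxn: 20 mM Tris-HCl pH 8.0, 5 mM MgCl2, 1 mM DTT, 5 mM ATP, 5 mM auxin, 5 mM Asp/Glu, 44–164 μg/mL purified His-GH3; 30° C., 3 h. MeOH quench, supernatant diluted 20×, LC-MS vs conjugate standards.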
row,Molecule,"Detected auxin conjugates: 2,4-D-Asp"
1,B1,No
2,B2,Yes
3,B3,No
4,B4,No
5,B5,No

# Same assay, conditions: LC-MS; 2,4-D with Glu
row,Molecule,"Detected auxin conjugates: 2,4-D-Glu"
1,B1,No
2,B2,Yes
3,B3,No
4,B4,No
5,B5,No

# Test: LC-MS assay of GH3 conjugation of IAA with Asp or Glu
# Type: biochemical
# Details: LC-MS; IAA with Asp
# Procedure, shortened: as §1
row,Molecule,Detected auxin conjugates: IAA-Asp
1,B1,No
2,B2,Yes
3,B3,No
4,B4,Yes
5,B5,Yes

# Same assay, conditions: LC-MS; IAA with Glu
row,Molecule,Detected auxin conjugates: IAA-Glu
1,B1,No
2,B2,Yes
3,B3,No
4,B4,No
5,B5,No

# From patent US20150351390A1, “COMPOSITIONS AND METHODS FOR AUXIN-ANALOG CONJUGATION” (PIONEER HI-BRED INTERNATIONAL, INC., priority 2012, published 2015)
